Assay results as given in patent US12497460B2, “Anti-MSR1 antibodies and methods of use thereof” (REGENERON PHARMACEUTICALS, INC., priority 2018, dated 2025).
Where two headings read alike, the source gives them in different places.

Key:
Msr1^hu/hu ApoE^−/− mice [1] = assay: In vivo LPS-induced cytokine production in serum; design: species or system mouse; details: 24 hours before in vivo LPS
Method: To examine the anti-inflammatory effect of the anti-MSR1 antibody-steroid conjugates, an ex-vivo and in vivo LPS-induced inflammatory immune response model was performed.
Generation of a mouse inflammatory immune response model. Mice homozygously expressing human MSR1 extracellular domain in place of the mouse MSR1 extracellular domain and with a homozygous deletion of the ApoE gene were utilized (resulting mice referred to as Msr1^hu/hu ApoE^−/− mice).
(§1) Assay protocol for in vivo LPS-induced responses. In in vivo LPS challenge experiments, mice were intraperitoneally administered with 10 μL/g of decreasing concentrations of anti-MSR1 antibody-steroid conjugates (H1H21234N-N297Q-LP13) and isotype control steroid conjugate (Isotype control-N297Q-LP13) at 24 hours prior to in vivo LPS challenge. PBS and free steroid P4 were intraperitoneally injected at 2 hours prior to in vivo LPS challenge. At 0 hour time point, three large drops of blood (volume ˜ 100 μL) were collected from the maxillary vein of each mouse into serum gel separator tubes. The tubes were centrifuged at 2200-2500 rpm for 15 minutes, and the serum was collected into 96-well plates for subsequent measurement of cytokines. At 18 hours post in vivo LPS challenge, the peritoneal cells were obtained from periotenal cavity as aforementioned for subsequent flow cytometry analysis.

Msr1^hu/hu ApoE^−/− mice [2] = assay: In vivo LPS-induced cytokine production in serum; design: species or system mouse; details: i.p. dosing 24 hours before LPS challenge; 2 hours post LPS challenge
[3] = tested on: Msr1^hu/hu ApoE^−/− mice, peritoneal macrophages; assay: LPS-mediated expression of CD80 on peritoneal macrophages (flow cytometry); format: in vivo, mouse; details: for LPS-mediated expression of CD80, pMΦ Cells: hMSR1+F4/80+CD11b+ peritoneal macrophages; for LPS-mediated expression of CD80, non-pMΦ Cells: hMSR1−F4/80−CD11b− cells
Method: Assay protocol for ex vivo LPS-induced responses. In ex vivo LPS challenge experiments, mice were intraperitoneally administered with 10 μL/g of anti-MSR1 antibody-steroid conjugates (H1H21234N-N297Q-LP13), isotype control steroid conjugate (Isotype control-LP13), unconjugated anti-MSR1 antibody (H1H21234N-N297Q) and isotype control antibodies at different time points (24, 48, and 72 hours) prior to harvesting the peritoneal cells from peritoneal cavity. […] All mice were sacrificed at 0 hour time point and peritoneal cells were obtained from the peritoneum by the peritoneal lavage technique. In brief, 5 mL of ice cold 1×PBS (ThermoFisher Scientific, Cat #20012027) containing 2% BSA (Gibco, Cat #A9576) and 0.6 mM EDTA (ThermoFisher Scientific, Cat #15575020) were injected into the peritoneal cavity using 27 g needle. […] The resuspended cells were plated at 500,000 cells per well in 24-well tissues culture plates and incubated with or without 10 ng/mL of LPS for 18 hours.
as §1
Analysis of expression of activation markers on peritoneal macrophages after LPS ex vivo challenge. Upon collection of supernatants for cytokine analysis, the plates were washed twice with 1×PBS w/o Ca^++/Mg2^++ (ThermoFisher Scientific, Cat #14190144), and the adherent peritoneal cells were harvested by addition of 250-300 μL of cold Macrophage Detachment Solution DXF (PromoCell, Cat #C41330) for 40 minutes. The detached cells were collected into 50-mL tubes and centrifuged at 350×g for 15 minutes. After two washes with 1×PBS supplemented with 2 mM EDTA, the cells were resuspended in Cell Staining Buffer (Biolegend, #420201) and plated at 1×10^6 cells per well in a 96-well V bottom plate. Cells were centrifuged and cell pellets were resuspended in 100 μL of LIVE/DEAD Blue Fluorescent Reactive Dye (Life Technologies, Cat #L34962) diluted at 1:600 in 1×PBS to determine cell viability. Cells were incubated at room temperature for 20 minutes in dark. After one wash with 1×PBS, cells were incubated in Cell Staining Buffer containing 10 μg/mL of purified rat anti-mouse CD16/CD32 Fc Block (Clone: 2.4G2; BD Biosciences, Cat #553142) for 10 minutes at 4° C. The cells were washed once and incubated in the appropriate antibody mixture diluted in Brilliant Stain Buffer (BD Biosciences, Cat #566345) for 30 minutes at 4° C. in dark. The cells were subsequently washed with 1×PBS, resuspended in Cell Staining Buffer and acquired on FACS LSRFortessa X-20 flow cytometer (Becton Dickinson). Data were analyzed using FlowJo (Tree Star).

[4] = tested on: LPS-induced IL-1β release in differentiated THP-1 cells; assay: LPS-mediated IL-1β release assay; format: cell-based, human; details: for IC50: 100 ng/ml LPS for 5 hours, read-out: IC50, inhibition of LPS-induced IL-1β secretion
Method: To test the anti-inflammatory properties of anti-MSR1 antibody-steroid conjugates in vitro, a lipopolysaccharide (LPS)-mediated IL-1β release assay was performed. For the assay, THP-1 cells were seeded onto 96 well plates at 40,000 cells/well in media containing RPMI supplemented with 10% FBS and pencillin/streptomycinin and differentiated with 200 nM Phorbol Myristate Acetate (PMA) for 3 days. After the 3-day differentiation period, three-fold serial dilutions of antibody drug conjugates, unconjugated antibodies, or free payloads in fresh media were added to the cells at final concentration ranging from 100 nM to 0.01 nM. Media alone served as a blank control. Subsequently at 24, 48, or 72 hours later, cells were treated with 100 ng/ml LPS (InVivoGen, Cat #tlrl-eklps) for 5 hours. The cell media was then collected, and IL-1β levels were measured using a V-PLEX Proinflammatory Panel 1 human kit (Meso Scale Diagnostics, Cat #15049D-2) as per manufacturer's instructions. Subsequently, the plate was read on a Meso Scale Diagnostics instrument.
IC50 values were determined from a four-parameter logistic equation over a 10-point response curve (GraphPad Prism). All IC50 values are expressed in M (molar) concentration. The IC50 values and IL-1β amount at the maximum concentration of antibody-steroid conjugates or controls are shown in Table 22 each of the time point tested.

B1: H1H21234N-N297Q-LP13 (conjugate)
VH: QVQLQESGPGLVKPSETLSLTCTVTGGSISRNYWSWIRQPPGKGLEWIGYIYYSGSIDYNPSLKSRVTISVDTSKNQFSLKLSSMTAADTAVYYCARDRWNWKYGMDVWGQGTTVIVSS
VL: EIVLTQSPGTLSLSPGERATLSCRASQTVRNNYLAWYHQKPGQAPRLLIYGASSRATGIPDRFSGSGSGTDFTLTISRLEPEDFTVYYCHQYGNSPWTFGQGTKMEIKR
For B1, the “Cytokine IL-6 in serum” value (Msr1^hu/hu ApoE^−/− mice [1]; 10.67 mg/kg) was 33 ± 8.1 ng/mL, the “Cytokine KC-GRO in serum” value (Msr1^hu/hu ApoE^−/− mice [1]; 10.67 mg/kg) was 13.3 ± 1.2 ng/mL and the “Cytokine TNF-α in serum” value (Msr1^hu/hu ApoE^−/− mice [1]; 10.67 mg/kg) was 0.51 ± 0.08 ng/mL. For the same molecule, the “Cytokine IL-6 in serum” value (Msr1^hu/hu ApoE^−/− mice [1]; 32.03 mg/kg) was 15.34 ± 5.2 ng/mL, the “Cytokine KC-GRO in serum” value (Msr1^hu/hu ApoE^−/− mice [1]; 32.03 mg/kg) was 10.6 ± 2.8 ng/mL and the “Cytokine TNF-α in serum” value (Msr1^hu/hu ApoE^−/− mice [1]; 32.03 mg/kg) was 0.48 ± 0.18 ng/mL. The “Cytokine IL-6 in serum” value (Msr1^hu/hu ApoE^−/− mice [1]; 96.08 mg/kg) was 7.7 ± 3.1 ng/mL, the “Cytokine KC-GRO in serum” value (Msr1^hu/hu ApoE^−/− mice [1]; 96.08 mg/kg) was 5.1 ± 1.5 ng/mL and the “Cytokine TNF-α in serum” value (Msr1^hu/hu ApoE^−/− mice [1]; 96.08 mg/kg) was 0.42 ± 0.14 ng/mL. The “effect on in vivo LPS-induced cytokine production in serum” value (Msr1^hu/hu ApoE^−/− mice [2]) was “efficacious in inhibiting in vivo LPS-induced cytokine production in a dose-dependent manner”, the “LPS-mediated expression of CD80, pMΦ Cells” value ([3]; administered 24 hours before) was 61.1 ± 1.3 % relative to PBS/LPS-treatment and the “LPS-mediated expression of CD80, non-pMΦ Cells” value ([3]; administered 24 hours before) was 95.5 ± 2.6 % relative to PBS/LPS-treatment. The “LPS-mediated expression of CD80, pMΦ Cells” value ([3]; administered 48 hours before) was 58.7 ± 4.2 % relative to PBS/LPS-treatment, the “LPS-mediated expression of CD80, non-pMΦ Cells” value ([3]; administered 48 hours before) was 99 ± 1.8 % relative to PBS/LPS-treatment and the “LPS-mediated expression of CD80, pMΦ Cells” value ([3]; administered 72 hours before) was 63.9 ± 1.01 % relative to PBS/LPS-treatment. For the same molecule, the “LPS-mediated expression of CD80, non-pMΦ Cells” value ([3]; administered 72 hours before) was 102.3 ± 0.14 % relative to PBS/LPS-treatment, the “LPS-mediated expression of CD80 on hMSR1^+F4/80^+CD11b^+ peritoneal macrophages (pMΦ)” value ([3]; in vivo administration) was “significant reduction” and the IC50 ([4]; 24-hour time point) was 6.29 nM. The IC50 ([4]; 48-hour time point) was 3.59 nM, the IC50 ([4]; 72-hour time point) was 1.7 nM and the “IL1beta released at max concentration tested” value (“IL1beta released” for short) ([4]; 24 hour treatment before LPS) was 119.43 pg/mL. For the same molecule, the “IL1beta released” value ([4]; 48 hour treatment before LPS) was 69.3 pg/mL and the “IL1beta released” value ([4]; 72 hour treatment before LPS) was 70.31 pg/mL.
